Test results from article PMC8771494.

Target: APC15R (the 15-aa repeat region of Adenomatous polyposis coli, repeats A-D with the linker region) (human)
Experiment: cross-linking

Sequence of APC15R (the 15-aa repeat region of Adenomatous polyposis coli, repeats A-D with the linker region) (human) (P25054 2-2843): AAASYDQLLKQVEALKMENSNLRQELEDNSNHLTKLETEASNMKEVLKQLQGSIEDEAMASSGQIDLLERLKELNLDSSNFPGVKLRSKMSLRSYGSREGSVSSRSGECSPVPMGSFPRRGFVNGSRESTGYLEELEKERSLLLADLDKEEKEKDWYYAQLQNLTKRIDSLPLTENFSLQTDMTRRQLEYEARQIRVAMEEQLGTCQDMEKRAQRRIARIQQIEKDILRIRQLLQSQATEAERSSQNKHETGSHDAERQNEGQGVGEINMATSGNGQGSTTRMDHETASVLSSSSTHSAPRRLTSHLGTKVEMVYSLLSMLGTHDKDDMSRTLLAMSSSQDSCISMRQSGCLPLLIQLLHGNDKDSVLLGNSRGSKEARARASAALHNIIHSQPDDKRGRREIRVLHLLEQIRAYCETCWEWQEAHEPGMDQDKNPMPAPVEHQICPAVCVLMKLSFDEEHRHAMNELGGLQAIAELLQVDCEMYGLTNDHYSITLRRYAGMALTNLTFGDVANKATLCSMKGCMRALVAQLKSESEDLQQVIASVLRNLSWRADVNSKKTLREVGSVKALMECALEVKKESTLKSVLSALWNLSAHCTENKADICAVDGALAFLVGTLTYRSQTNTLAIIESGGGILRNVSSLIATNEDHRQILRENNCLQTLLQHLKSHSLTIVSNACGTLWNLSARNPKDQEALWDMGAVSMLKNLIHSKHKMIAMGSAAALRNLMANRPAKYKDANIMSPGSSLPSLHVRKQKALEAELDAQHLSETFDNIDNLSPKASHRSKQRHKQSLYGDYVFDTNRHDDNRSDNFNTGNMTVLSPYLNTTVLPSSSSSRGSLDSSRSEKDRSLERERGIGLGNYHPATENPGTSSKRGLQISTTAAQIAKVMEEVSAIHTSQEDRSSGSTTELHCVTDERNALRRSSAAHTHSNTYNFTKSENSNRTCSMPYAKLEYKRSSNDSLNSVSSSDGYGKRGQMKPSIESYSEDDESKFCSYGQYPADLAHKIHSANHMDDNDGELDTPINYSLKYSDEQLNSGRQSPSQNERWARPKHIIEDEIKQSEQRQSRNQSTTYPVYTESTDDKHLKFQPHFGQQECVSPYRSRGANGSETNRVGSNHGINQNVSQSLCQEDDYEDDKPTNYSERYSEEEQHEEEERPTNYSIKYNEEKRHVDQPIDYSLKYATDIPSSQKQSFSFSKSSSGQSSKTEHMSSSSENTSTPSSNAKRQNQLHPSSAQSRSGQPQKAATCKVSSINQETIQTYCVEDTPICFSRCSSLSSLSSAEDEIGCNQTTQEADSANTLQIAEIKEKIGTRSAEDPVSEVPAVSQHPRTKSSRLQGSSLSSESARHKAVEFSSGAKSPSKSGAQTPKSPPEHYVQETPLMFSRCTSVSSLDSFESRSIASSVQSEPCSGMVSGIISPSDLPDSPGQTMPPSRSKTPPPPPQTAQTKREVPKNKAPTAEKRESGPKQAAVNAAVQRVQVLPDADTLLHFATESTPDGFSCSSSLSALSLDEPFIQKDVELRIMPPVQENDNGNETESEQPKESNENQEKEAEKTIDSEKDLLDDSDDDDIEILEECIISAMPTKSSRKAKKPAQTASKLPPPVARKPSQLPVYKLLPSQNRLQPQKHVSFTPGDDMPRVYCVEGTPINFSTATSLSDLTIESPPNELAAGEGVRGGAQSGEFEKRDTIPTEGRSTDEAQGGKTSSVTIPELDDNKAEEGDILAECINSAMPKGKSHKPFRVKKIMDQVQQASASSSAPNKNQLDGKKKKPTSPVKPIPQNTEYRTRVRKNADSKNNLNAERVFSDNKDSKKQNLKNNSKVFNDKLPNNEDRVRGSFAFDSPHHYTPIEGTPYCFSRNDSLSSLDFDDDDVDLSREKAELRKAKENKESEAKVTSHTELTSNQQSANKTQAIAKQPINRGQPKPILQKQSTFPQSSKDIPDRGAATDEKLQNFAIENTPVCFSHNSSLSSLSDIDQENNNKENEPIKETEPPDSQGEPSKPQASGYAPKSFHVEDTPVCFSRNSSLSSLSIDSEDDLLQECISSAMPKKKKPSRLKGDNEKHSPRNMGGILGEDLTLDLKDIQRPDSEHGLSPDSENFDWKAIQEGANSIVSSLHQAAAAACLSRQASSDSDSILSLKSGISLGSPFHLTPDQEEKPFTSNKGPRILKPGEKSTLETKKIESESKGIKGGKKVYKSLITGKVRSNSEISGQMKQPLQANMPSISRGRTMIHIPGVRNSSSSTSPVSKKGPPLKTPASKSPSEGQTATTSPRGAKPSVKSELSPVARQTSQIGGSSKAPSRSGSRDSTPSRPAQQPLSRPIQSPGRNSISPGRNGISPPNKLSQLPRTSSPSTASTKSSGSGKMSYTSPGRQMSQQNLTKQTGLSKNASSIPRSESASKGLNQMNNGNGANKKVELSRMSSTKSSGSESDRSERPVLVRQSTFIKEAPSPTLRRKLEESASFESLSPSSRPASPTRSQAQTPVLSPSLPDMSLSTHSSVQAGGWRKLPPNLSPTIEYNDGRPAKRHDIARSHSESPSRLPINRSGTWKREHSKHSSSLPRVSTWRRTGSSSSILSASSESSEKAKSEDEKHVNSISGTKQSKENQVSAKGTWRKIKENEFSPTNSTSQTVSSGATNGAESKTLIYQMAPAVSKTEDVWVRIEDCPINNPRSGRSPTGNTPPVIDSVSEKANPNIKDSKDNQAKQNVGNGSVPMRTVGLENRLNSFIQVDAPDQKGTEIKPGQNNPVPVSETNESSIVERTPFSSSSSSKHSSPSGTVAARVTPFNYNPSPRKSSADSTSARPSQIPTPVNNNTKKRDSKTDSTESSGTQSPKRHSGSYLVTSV

- stoichiometry N (β-catenin per APC15R): 1
Substance: β-catenin (aa. 150–665), the central region of β-catenin (from UniProt P35222 150-665) (domain or fragment)
